Measured values as given in US20040013647A1.

Molecular target: 508F(Fv)-CBD (508 scFv mutant C96F fused to CBD) (Clostridium thermocellum) (UniProt Q06851)
Test: competitive ELISA, soluble βAP(1-16) pre-incubated with 508F(Fv)-CBD before βAP coated wells

Substance: βAP(1-16), β-amyloid 1-16 amino acid peptide
- IC50: 1000 nM
